PMC4295836 (Arteriosclerosis, thrombosis, and vascular biology, 2013)

T1: G-protein–coupled receptor kinase–interacting protein-1 (human (endogenous in HUVEC), UniProt Q9Y2X7 1-761)
T1 sequence (looked up): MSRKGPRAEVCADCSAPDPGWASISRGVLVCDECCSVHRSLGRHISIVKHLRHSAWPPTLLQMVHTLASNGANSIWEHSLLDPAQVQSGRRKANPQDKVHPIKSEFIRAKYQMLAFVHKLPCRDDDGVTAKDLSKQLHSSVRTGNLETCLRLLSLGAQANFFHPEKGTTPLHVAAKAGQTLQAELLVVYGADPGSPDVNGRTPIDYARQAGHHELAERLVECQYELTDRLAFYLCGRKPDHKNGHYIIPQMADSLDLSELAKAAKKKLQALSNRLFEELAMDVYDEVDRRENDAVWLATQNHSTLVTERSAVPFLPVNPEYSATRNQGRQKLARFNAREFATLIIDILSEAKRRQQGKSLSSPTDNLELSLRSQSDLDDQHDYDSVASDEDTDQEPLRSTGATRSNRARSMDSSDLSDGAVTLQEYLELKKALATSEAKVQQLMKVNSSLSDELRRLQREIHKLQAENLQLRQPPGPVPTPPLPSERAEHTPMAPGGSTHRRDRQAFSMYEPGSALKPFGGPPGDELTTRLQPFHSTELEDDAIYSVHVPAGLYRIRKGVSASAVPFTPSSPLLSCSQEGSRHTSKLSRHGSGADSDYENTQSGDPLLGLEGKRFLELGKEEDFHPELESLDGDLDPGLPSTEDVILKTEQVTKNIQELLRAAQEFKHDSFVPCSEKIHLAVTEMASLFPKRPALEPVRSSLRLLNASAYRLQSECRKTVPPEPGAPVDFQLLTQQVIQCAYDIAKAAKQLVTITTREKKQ

B1: cortactin (natural protein, human (endogenous in HUVEC), UniProt Q14247 1-550, looked up)
chain: MWKASAGHAVSIAQDDAGADDWETDPDFVNDVSEKEQRWGAKTVQGSGHQEHINIHKLRENVFQEHQTLKEKELETGPKASHGYGGKFGVEQDRMDKSAVGHEYQSKLSKHCSQVDSVRGFGGKFGVQMDRVDQSAVGFEYQGKTEKHASQKDYSSGFGGKYGVQADRVDKSAVGFDYQGKTEKHESQRDYSKGFGGKYGIDKDKVDKSAVGFEYQGKTEKHESQKDYVKGFGGKFGVQTDRQDKCALGWDHQEKLQLHESQKDYKTGFGGKFGVQSERQDSAAVGFDYKEKLAKHESQQDYSKGFGGKYGVQKDRMDKNASTFEDVTQVSSAYQKTVPVEAVTSKTSNIRANFENLAKEKEQEDRRKAEAERAQRMAKERQEQEEARRKLEEQARAKTQTPPVSPAPQPTEERLPSSPVYEDAASFKAELSYRGPVSGTEPEPVYSMEAADYREASSQQGLAYATEAVYESAEAPGHYPAEDSTYDEYENDLGITAVALYDYQAAGDDEISFDPDDIITNIEMIDDGWWRGVCKGRYGLFPANYVELRQ
B2: phosphorylated S405-cortactin (natural protein, human (endogenous in HUVEC), UniProt Q14247 1-550, looked up)
chain: B1 chain
modifications: phosphoserine at 405

Molecular target: T1, G-protein–coupled receptor …
Experiment: co-IP

Binder	fold increase of association on VEGF (vs unstimulated) [fold]	fold increase of its level in the GIT1–cortactin complex on VEGF [fold]
B1	6	–
B2	–	4
